Where a chain is given by its changes, count along the chain named.
B1: 14E5Mut65 scFv (scFv, V domains shown)
VH: QVQLQQSGAELMKPGASVKISCKATGYSFSTNWIEWIKQRPGHGLEWIGHILPGSVITNYNEKFKGKAAITADTSSNTSYMQLSSLTSDDSAVYYCARWGWDSYWGQGTLVTVSS
VL: DIKMTQSPSSLSASLGDRVTISCSASQGISNYLNWYQQKPDGTVKLLIYYTSSLHSGVPSRFSGSGSGTDYSLTISNLEPEDIATYYCQQFSNLPYTFGGGTKLEIK
B2: 11E8Mut94 scFv (scFv, V domains shown, part only)
VH: EVQLQQSGPELMKTGASVKISCKATGYTFSSYWIEWVKQRPGHGLEWIGDILPGSGTTNYNEKFEGRAAITADTSSNTSYMQLSSLTSEDSAVYYCARWGWDSYWGQGTLVTVSS
VL: DIKMTQTPSSLSASLGDRVTISCSASQGISNYLNWYQQKPDGTVKLLIYYTSSLHSGVPSRFSGSGSGTDYSLTISNLEPEDIATYYCQQYSNLPYTFGGGTKLEIKR
modifications: linker not given; order not stated
B3: 14E5Mut68 scFv (scFv, V domains shown, part only)
VH: B2 VH with P9A, T14P, S31T, V37I, E65K, A69T, I70V, T74R, S79A
VL: B2 VL with T7S, N93E
modifications: linker not given; order not stated
B4: 14E5Mut54 scFv (scFv, V domains shown, part only)
VH: B1 VH with Q1E, S28T, D89E
VL: B2 VL with K3V, S22R
modifications: linker not given; order not stated
B5: 11E8Mut28 scFv (scFv, V domains shown)
VH: B2 VH with E65K, R67K, M81L
VL: B1 VL with K3V
B6: 14E5 scFv (scFv, V domains shown)
VH: B1 VH with Q1E, S28T, N32Y, D89E
VL: B1 VL with K3E, A25T, G28D, N31S, Y32S, K45T, S53N, F91Y, N93K
B7: 14E5Mut95 scFv (scFv, V domains shown)
VH: B1 VH with Q1E, S7T, S28T, N32Y, A69V, D89E
VL: B1 VL with K3E, F91Y, N93D
B8: 14E5Mut83 scFv (scFv, V domains shown)
VH: B1 VH with Q1E, E10V, S28T, N32H, D89E
VL: B1 VL with K3L, F91Y, N93D
B9: 14E5Mut11 scFv (scFv, V domains shown)
VH: B1 VH with Q1E, S28T, D89E
VL: B1 VL with K3L, N31K, F91Y
B10: 14E5Mut42 scFv (scFv, V domains shown)
VH: B1 VH with Q1E, Q3P, S28T, N32Y, D89E
VL: B1 VL with K3V, S7T, F91Y, N93D
B11: 4F1 scFv (scFv, V domains shown)
VH: QVQLQQSGAELVRPGTSVKVSCKASGYAFTNYLIEWVKQRPGQGLEWIGVINPGTGGTNYNKKFKVKATLTADKSSSTAYMQLGGLTFDDSAVYFCAREGNARTYYYAMDYWGQGTSVTVSS
VL: DIEMTQTPASLSASVGETVTITCRASENIYSYLVWYQQKQGKSPQVLVYNAKTLAEGVPSRFSGSGSGTQFSLKINSLQPEDFGSYYCQHHNGTPYTFGGGTKLEIK
B12: 6B9 scFv (scFv, V domains shown)
VH: QVQLQQSGAELVRPGTSVKVSCKASGYAFTDYLIEWVKQRPGQGLEWIGVINPETGGTNYNAKFKGKATLTADKSSSSAYMQLSSLTSGDSAVYFCAREAGNYIYAMDYWGQGTSVTVSS
VL: B11 VL with E3Q, T7S, E27V, V46L, Y49H, N92H
B13: 6B9Mut1 scFv (scFv, V domains shown)
VH: B12 VH with K65R
VL: B11 VL with E3V, T7S, E27V, V46L, Y49H, N92H
B14: 11E8Mut39 scFv (scFv, V domains shown, part only)
VH: EVQLQQSGPELMKTGASVKISCKATGYTFSTYWIEWVKQRPGHGLEWIGHTLPGSGTTNYNEKFKGRATITADRPSNTSYMQLSSLTYGDSAVFYCATWGWDTYWDHGTSVTVSS
VL: DIEMTQSPSSLSASLGDRVTISCSTSQDVSSYLNWYQQKPDGTVTLLIYYASNLHSGVPSRFSGSGSGTDYSLAISNLEPEDIATYYCQQYSNLPYTFGGGTKLEIKA
modifications: linker not given; order not stated
B15: 11E8 scFv (scFv, V domains shown)
VH: B14 VH with T31S, H50D, T51I, I70V, P75S, S79A, F94Y, H107Q
VL: B1 VL with K3V, F91Y

Tests used:
[1] = target: integrin αβ8 (αvβ8), form in the assay not stated (UniProt P06756 31-992); assay: affinity determination of scFv; method and antigen form not stated
[2] = target: integrin αβ8 (αvβ8), form in the assay not stated (UniProt P06756); assay: as above
Chain of integrin αβ8 (αvβ8), form in the assay not stated (UniProt P06756) (chain, as listed by the source, chain 1 of 2): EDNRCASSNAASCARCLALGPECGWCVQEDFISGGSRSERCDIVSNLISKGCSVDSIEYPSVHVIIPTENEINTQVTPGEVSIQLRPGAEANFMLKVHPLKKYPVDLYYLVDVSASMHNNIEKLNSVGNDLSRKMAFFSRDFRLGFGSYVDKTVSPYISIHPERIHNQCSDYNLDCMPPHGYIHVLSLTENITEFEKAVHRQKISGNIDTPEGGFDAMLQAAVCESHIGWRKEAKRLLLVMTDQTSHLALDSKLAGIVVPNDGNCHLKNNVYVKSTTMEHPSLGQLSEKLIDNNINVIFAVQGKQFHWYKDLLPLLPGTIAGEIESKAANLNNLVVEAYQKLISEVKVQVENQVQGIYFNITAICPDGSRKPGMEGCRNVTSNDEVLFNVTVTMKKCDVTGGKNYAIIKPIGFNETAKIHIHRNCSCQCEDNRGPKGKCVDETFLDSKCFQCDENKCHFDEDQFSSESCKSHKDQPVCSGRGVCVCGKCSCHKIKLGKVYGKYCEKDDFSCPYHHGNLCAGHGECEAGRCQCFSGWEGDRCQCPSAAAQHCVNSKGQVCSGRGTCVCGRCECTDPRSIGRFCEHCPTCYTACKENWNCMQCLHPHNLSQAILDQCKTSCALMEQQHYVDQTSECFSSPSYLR
Chain of integrin αβ8 (αvβ8), form in the assay not stated (UniProt P06756) (P06756 31-992, chain 2 of 2): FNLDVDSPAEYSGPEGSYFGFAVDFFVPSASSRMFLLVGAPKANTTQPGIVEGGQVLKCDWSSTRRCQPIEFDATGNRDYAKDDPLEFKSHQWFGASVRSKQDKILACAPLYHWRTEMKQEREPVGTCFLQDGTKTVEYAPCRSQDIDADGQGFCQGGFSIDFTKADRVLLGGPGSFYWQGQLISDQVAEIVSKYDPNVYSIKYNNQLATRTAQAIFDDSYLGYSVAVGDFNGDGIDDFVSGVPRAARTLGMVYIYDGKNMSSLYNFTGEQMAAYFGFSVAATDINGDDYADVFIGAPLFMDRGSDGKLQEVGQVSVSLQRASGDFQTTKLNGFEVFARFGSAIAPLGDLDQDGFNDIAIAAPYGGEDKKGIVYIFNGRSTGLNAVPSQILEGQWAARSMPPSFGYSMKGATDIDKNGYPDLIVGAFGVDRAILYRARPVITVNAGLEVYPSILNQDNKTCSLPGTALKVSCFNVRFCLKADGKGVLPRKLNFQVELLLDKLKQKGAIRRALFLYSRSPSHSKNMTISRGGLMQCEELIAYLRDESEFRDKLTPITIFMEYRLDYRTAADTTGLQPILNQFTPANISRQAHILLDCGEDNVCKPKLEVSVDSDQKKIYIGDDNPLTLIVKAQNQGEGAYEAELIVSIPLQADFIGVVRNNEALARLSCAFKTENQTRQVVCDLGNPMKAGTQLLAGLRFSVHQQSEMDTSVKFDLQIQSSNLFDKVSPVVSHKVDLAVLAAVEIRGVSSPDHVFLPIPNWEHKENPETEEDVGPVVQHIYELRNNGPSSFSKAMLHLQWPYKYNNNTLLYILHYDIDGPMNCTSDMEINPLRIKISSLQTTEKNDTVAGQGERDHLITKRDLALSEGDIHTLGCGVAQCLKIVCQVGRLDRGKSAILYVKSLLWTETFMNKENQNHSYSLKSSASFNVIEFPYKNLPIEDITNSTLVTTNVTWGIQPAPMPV

Chain of integrin αβ8 (αvβ8), form in the assay not stated (UniProt P06756 31-992) (chain, as listed by the source, chain 1 of 2): as the sequence (chain, as listed by the source, chain 1 of 2) above
Chain of integrin αβ8 (αvβ8), form in the assay not stated (UniProt P06756 31-992) (P06756 31-992, chain 2 of 2): as the sequence (P06756 31-992, chain 2 of 2) above

Binder | Kd [1] | Kd [2]
B1 | 3.04 nM | 
B2 |  | 3.2 nM
B3 |  | 1.42 nM
B4 |  | 2.09 nM
B5 | 3.52 nM | 
B6 | 14 nM | 
B7 | 1.83 nM | 
B8 | 1.79 nM | 
B9 | 3.85 nM | 
B10 | 3.35 nM | 
B11 | > 100 nM | 
B12 | 14.8 nM | 
B13 | 9.34 nM | 
B14 |  | 21.1 nM
B15 | > 250 nM | 
